Experimental data as given in patent publication US20040241754A1, “Modulating neuronal plasticity” (The Salk Institute for Biological Studies, priority 2003, published 2004).
“Also recorded” adds a separate entry of the source. Ends that are not written are not given here.

What was measured:
[1] = system: mossy fiber synapses of hippocampal CA3 pyramidal neurons; assay: Mossy fiber LTP, whole-cell patch clamp in hippocampal slices; type: cell-based, mice; details: for LTP (potentiation of the EPSC after tetanic stimulation): peptide 50 μM in patch electrode (postsynaptic), 25 to 30 minutes after tetanic stimulation; for LTP PPR (paired pulse ratio after LTP induction) / control PPR (paired pulse ratio before LTP induction): 40 ms interval; for effect on tetanus induced LTP: peptide in patch electrode (postsynaptic); for LTP (potentiation of EPSCs after tetanic stimulation): bath application 5 μg/ml
Protocol: The role of the GluR2 subunit in LTP at mossy fiber terminals was evaluated in whole cell patch clamp experiments using hippocampal CA3 pyramidal neurons. Briefly, transverse hippocampal slices (350 μm) were made from P12-18 mice (strain 129SvEv) as previously described (Contractor et al., Neuron 29, 209-16. (2001)). Slices were transferred to a recording chamber, and whole-cell patch clamp recordings made from visually identified pyramidal cells in the CA3 region of the hippocampus. The recording electrode (i.e., patch electrode) is filled with an “internal” solution described below. A seal between the glass of the electrode and the membrane of the cell is made. The seal is then “broken through” by pushing the electrode through the membrane to gain low resistance access to the cell interior and enable voltage clamping of the cell membrane. This also allows dialysis of the cell with test reagents such as peptides and antibodies. A stimulating electrode is attached to a current source and allows current to stimulate action potentials while a reference electrode is placed in the recording bath. The composition of the internal solution was: 95 mM CsF, 25 mM CsCl, 10 mM Cs-HEPES, 10 mM Cs-EGTA, 2 mM NaCl, 2 mM Mg-ATP, 10 mM QX-314, 5 mM TEA-Cl, 5 mM 4-AP, pH adjusted to 7.3 with CsOH.
Peptides were added directly to the internal solution on the day of the experiment from frozen stocks in protease inhibitors made up in phosphate buffered saline (PBS). To avoid leakage of peptides or antibodies into the extracellular space, pipette tips were filled with normal internal solution and then the pipette was backfilled with peptide/antibody containing internal fluid. The final concentration of peptides was 50 μM in all experiments. The final concentration of protease inhibitors were: bestatin 2 μg/ml, leupeptin 25 ng/ml, pepstatin 35 ng/ml, aprotinin 100 ng/ml.
In control experiments where peptides were not included, internal solutions were made up in exactly the same way with protease inhibitors in PBS but lacking any added peptide. Antibodies were made up in PBS stock and added directly to the internal solution at a final concentration of 20 μg/ml. The pH and osmolarity of all internal solutions were checked before use. Series resistances (Rs) were generally <10M and were continuously monitored throughout the duration of the experiment. […] Experiments using mutant mice were performed with heterozygous breedings blind to the genotype of the animal.
Mossy fiber EPSCs were evoked with a monopolar glass electrode positioned in the stratum lucidum. EPSCs were evaluated using a 40 ms interval between recordings. All recordings were made in the continuous presence of bicuculline (10 μM), picrotoxin (50 μM) and the NMDA receptor antagonist D-AP5 [D(-)-2-Amino-5-phosphonopentanoic acid; 50 μM]. The group II mGluR agonist, LCCG-1 (10 μM), which selectively depresses mossy fiber transmission, was applied at the end of each experiment. LTP was induced by tetanic stimulation comprising three 1 s stimulations (100 Hz) with a 10 s interval. Data are presented as mean±SEM. Parameters were compared using the Student's unpaired t-test where not specified, and the K-S test, p<0.05 was considered significant.
Cumulative probability is determined by ranking the EPSC data set from the highest to the lowest value from 20 to 30 minutes post tetanization. Each point is graphed with its corresponding percentile. […] The lowest LTP value was about 40% signified by the lowest point on the 1 st graph (open circles) and the largest LTP was about 160%.

GRIP PDZ4-6 = target: T1, GRIP PDZ4-6 (Rattus norvegicus, UniProt P97879); assay: Competitive binding of 35S-EphB2 to His-GRIP-PDZ4-6; details: concentrations of up to 10 μM peptide; listed as GluR2ctSC
T1 construct: corresponding to GRIP1 (amino acid 448-792); made in house; host or cells: E. coli BL21
T1 sequence (P97879 448-792): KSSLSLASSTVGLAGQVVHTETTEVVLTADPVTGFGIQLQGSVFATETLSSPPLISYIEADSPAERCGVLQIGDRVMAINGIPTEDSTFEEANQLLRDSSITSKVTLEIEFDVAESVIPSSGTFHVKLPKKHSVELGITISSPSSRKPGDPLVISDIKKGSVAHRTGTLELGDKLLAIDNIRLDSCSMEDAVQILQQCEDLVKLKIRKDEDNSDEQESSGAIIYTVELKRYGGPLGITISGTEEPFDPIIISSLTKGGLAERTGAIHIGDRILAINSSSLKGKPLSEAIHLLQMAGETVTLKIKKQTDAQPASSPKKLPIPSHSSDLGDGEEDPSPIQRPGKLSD
Protocol: A competitive binding assay was prepared to determine if the LTP inhibitory effects of the GluR2ct peptide were mediated through disruption of binding between Eph receptors and PDZ domain 6 of GRIP (Torres et al., Neuron 21, 1453-63. (1998)) as opposed to disruption of binding between the GluR2 subunit and the GluR2-binding PDZ 4 and 5 domains of GRIP (Dong et al., Nature 386, 279-84. (1997)). For this purpose, a binding assay was established between GRIP PDZ domain fragments (His-GRIP-PDZ4-6) and an EphB2 carboxy terminal fusion protein labeled with ^35S-methionine (^35S-EphB2).
Briefly, the carboxy terminal region of EphB2 corresponding to mouse EphB2 receptor (amino acid 930-993) was generated by PCR from mouse brain library and subcloned into pGEX2TK (Pharmacia). The GRIP(PDZ4-6) construct, corresponding to GRIP1 (amino acid 448-792) was obtained by PCR from an adult rat hippocampal library and subcloned into pRSET vector. E coli (strain BL21) were transformed with His-GRIP(PDZ4-6) and GST-EphB2 and protein production induced with IPTG. GST-EphB2 protein was purified on glutathionine beads and ^35S-EphB2 cleaved from GST with thrombin (1 U/μg). GRIP(PDZ4-6) protein was purified on Ni-NTA agarose, and eluted with imadazole. ^35S-EphB2 (50 nM) was incubated with (15 μg) of His-GRIP(PDZ4-6) protein in PBS buffer with protease inhibitors for 2 hrs at 22° C. in the absence or presence of peptides. ^35S-EphB2 binding to His-GRIP(PDZ4-6) was determined after a 45 min incubation with Ni-NTA agarose and vacuum filtration onto Whatman GFB filter circles (pretreated with 3% BSA). Filters were washed with ice-cold PBS buffer, allowed to equilibrate overnight in ECOLUME scintillation cocktail (ICN pharmaceuticals, Irvine Calif.), and specific counts measured in a scintillation counter. Non-specific binding was defined as the residual binding measured in the absence of His-GRIP(PDZ4-6).

[2] = system: mossy fiber synapses of hippocampal CA3 pyramidal neurons; assay: Forskolin-mediated potentiation of mossy fiber EPSCs; type: cell-based, mice; details: for forskolin potentiation of mossy fiber EPSCs after pre-application of Fc fusion protein: Fc fusion protein bath applied before forskolin; for effect on forskolin enhancement / mossy fiber transmission: bath application
[3] = target: presynaptic ephrin-B ligands; assay: cell-based or functional assay
[4] = peptide 50 μM in patch electrode
[5] = Fc fusion protein, bath application

LHLHGTGIQV [EphA7 peptide, reference compound]
LTP (potentiation of the EPSC after tetanic stimulation) [1]: 250±46%
LTP PPR (paired pulse ratio after LTP induction) [1, 4]: 2.3±0.22
control PPR (paired pulse ratio before LTP induction) [1, 4]: 2.8±0.15
PTP (post-tetanic potentiation) ([1]; peptide 50 μM in patch electrode, immediately following tetanic stimulation): 990±180%
paired pulse ratio after LTP induction versus pretetanic ([1]; peptide in patch electrode): significantly reduced relative to pretetanic recording

N[C@H](C(=O)O)[C@H]1C[C@@H]1C(=O)O [LCCG-1, (2S,1′S,2′S)-2-(carboxycyclopropyl)glycine, reference compound]
effect on mossy fiber EPSC ([1]; applied at the end of each experiment, 10 μM): caused inhibition of the EPSC

NVIYVKSEIG [R2ctSC, reference compound]
LTP (potentiation of the EPSC after tetanic stimulation) [1]: 200±11%
LTP PPR (paired pulse ratio after LTP induction) [1, 4]: 2.4±0.10
control PPR (paired pulse ratio before LTP induction) [1, 4]: 3.1±0.19
effect on basal synaptic transmission / basal EPSC amplitudes ([1]; peptide in patch electrode): stable
effect on tetanus induced LTP [1]: little effect on induction of LTP
effect on tetanus induced LTP ([1]; listed as GluR2ctSC): do not inhibit LTP
displacement of labeled EphB2 from GRIP PDZ4-6 (GRIP PDZ4-6): unable to displace binding; also recorded: do not inhibit binding of EphB2 to GRIP

C=C[C@@]1(C)CC(=O)[C@]2(O)[C@@]3(C)[C@@H](O)CCC(C)(C)[C@@H]3[C@H](O)[C@H](OC(C)=O)[C@@]2(C)O1 [forskolin, reference compound]
potentiation of mossy fiber EPSCs by forskolin ([2]; bath application of forskolin alone, 20-30 minutes after application): 275±38%

B1: ephrin-B1-Fc: mouse ephrin (Met 1 to Ser 229), a linker, Human gamma heavy chain (Pro 100 to Lys 330) and (His)5 (protein)
chain (part 1 of 2): ATPLAKNLEPVSWSSLNPKFLSGKGLVIYPKIGDKLDIICPRAEAGRPYEYYKLYLVRPEQAAACSTVLDPNVLVTCNKPHQEIRFTIKFQEFSPNYMGLEFKKYHDYYITSTSNGSLEGLENREGGVCRTRTMKIVMKVGQDPNAVTPEQLTTSRPSKESDNTVKTATQAPGRGSQGDSDGKHETVNQEEKSGPGAGGGGSGDSIEGRMD
chain (part 2 of 2): HHHHH
modifications: left off: a dimerising Fc or GST
PTP (post-tetanic potentiation) [1, 5]: 430±100%
effect on LTP induction [1, 5]: significantly impair LTP induction
effect on basal synaptic transmission / baseline EPSC amplitudes [1, 5]: did not alter the baseline EPSC amplitudes; also recorded: does not affect basal transmission
effect on post-tetanic potentiation / short-term plasticity [1, 5]: significantly impaired
paired pulse ratio, effect [1, 5]: no significant difference in PPR
LTP (potentiation of EPSCs after tetanic stimulation) ([1]; Fc fusion protein): 139±12%
forskolin potentiation of mossy fiber EPSCs after pre-application of Fc fusion protein [2]: 219±15%
effect on forskolin enhancement / mossy fiber transmission [2]: does not affect Forskolin enhancement

B2: EphB2-Fc fusion protein (Fc fusion, mouse, not shown: a dimerising Fc or GST)
chain (part 1 of 2): VEETLMDSTTATAELGWMVHPPSGWEEVSGYDENMNTIRTYQVCNVFESSQNNWLRTKFIRRRGAHRIHVEMKFSVRDCSSIPSVPGSCKETFNLYYYEADFDLATKTFPNWMENPWVKVDTIAADESFSQVDLGGRVMKINTEVRSFGPVSRNGFYLAFQDYGGCMSLIAVRVFYRKCPRIIQNGAIFQETLSGAESTSLVAARGSCIANAEEVDVPIKLYCNGDGEWLVPIGRCMCKAGFEAVENGTVCRGCPSGTFKANQGDEACTHCPINSRTTSEGATNCVCRNGYYRADLDPLDMPCTTIPSAPQAVISSVNETSLMLEWTPPRDSGGREDLVYNIICKSCGSGRGACTRCGDNVQYAPRQLGLTEPRIYISDLLAHTQYTFEIQAVNGVTDQSPFSPQFASVNITTNQAAPSAVSIMHQVSRTVDSITLSWSQPDQPNGVILDYELQYYEKELSEYNATAIKSPTNTVTVQGLKAGAIYVFQVRARTVAGYGRYSGKMYFQTMTEAEYQTSIKEKLPLIVGDIEGRMD
chain (part 2 of 2): HHHHH
LTP after tetanic stimulation in the presence of EphB2-Fc [3]: 134%
basal EPSC amplitude during bath application (5 µg/ml) [3]: 145%
forskolin potentiation of mossy fiber EPSCs 30 mins after washout, after EphB2-Fc [3]: 118%
post-tetanic potentiation [3]: 420%
potentiation of baseline EPSC amplitudes on bath application [3]: 148%

B3: EphB2-Fc: mouse EphB2 (Met 1 to Lys 546), a linker, Human gamma heavy chain (Pro 100 to Lys 330) and (His)5 (protein)
chain (part 1 of 2): VEETLMDSTTATAELGWMVHPPSGWEEVSGYDENMNTIRTYQVCNVFESSQNNWLRTKFIRRRGAHRIHVEMKFSVRDCSSIPSVPGSCKETFNLYYYEADFDLATKTFPNWMENPWVKVDTIAADESFSQVDLGGRVMKINTEVRSFGPVSRNGFYLAFQDYGGCMSLIAVRVFYRKCPRIIQNGAIFQETLSGAESTSLVAARGSCIANAEEVDVPIKLYCNGDGEWLVPIGRCMCKAGFEAVENGTVCRGCPSGTFKANQGDEACTHCPINSRTTSEGATNCVCRNGYYRADLDPLDMPCTTIPSAPQAVISSVNETSLMLEWTPPRDSGGREDLVYNIICKSCGSGRGACTRCGDNVQYAPRQLGLTEPRIYISDLLAHTQYTFEIQAVNGVTDQSPFSPQFASVNITTNQAAPSAVSIMHQVSRTVDSITLSWSQPDQPNGVILDYELQYYEKELSEYNATAIKSPTNTVTVQGLKAGAIYVFQVRARTVAGYGRYSGKMYFQTMTEAEYQTSIKEKLPLIVGDIEGRMD
chain (part 2 of 2): HHHHH
modifications: left off: a dimerising Fc or GST
LTP PPR [1, 5]: 2.2 ±0.2
PTP (post-tetanic potentiation) [1, 5]: 420±85%
control PPR [1, 5]: 2.5±0.3
effect on LTP induction [1, 5]: inhibits subsequent tetanus induced LTP
paired pulse ratio, effect [1, 5]: small, non-significant reduction in the baseline PPR; also recorded: not significantly reduced
LTP (potentiation of EPSCs after tetanic stimulation) ([1]; Fc fusion protein): 134±13%
increase in the basal EPSC amplitude ([1]; bath application 5 μg/ml for twenty minutes during baseline recording): 145±13%
forskolin potentiation of mossy fiber EPSCs after pre-application of Fc fusion protein [2]: 118±10%
effect on forskolin enhancement / mossy fiber transmission [2]: inhibits subsequent forskolin effects
potentiation of baseline amplitudes ([2]; bath applied before forskolin): 148±19%
